Data from patent US20230103631A1, “PEPTIDES AS SELECTIVE GIP RECEPTOR AGONISTS” (Sanofi, priority 2020, published 2023).
*1 amine or outer side, *2 acyl side, *3 side chain or, on linkers, in order; H or OH if unused. Where no end group is shown, it is not given here. Side-chain parts run from the residue outwards. [ ]: non-standard residue; d: D form. The star is where a group is joined. C20 diacid = O=C(O)CCCCCCCCCCCCCCCCCCC(=O)*; C18 diacid = O=C(O)CCCCCCCCCCCCCCCCC(=O)*; γGlu = O=C(O)[C@H](CCC(=O)[*:2])N[*:1]; NMeY = CN[C@@H](Cc1ccc(O)cc1)C(=O)O; AEEA = NCCOCCOCC(=O)O; Aib = CC(C)(N)C(=O)O

T1: human GIP receptor (human, UniProt P48546 22-466)
T1 sequence (looked up): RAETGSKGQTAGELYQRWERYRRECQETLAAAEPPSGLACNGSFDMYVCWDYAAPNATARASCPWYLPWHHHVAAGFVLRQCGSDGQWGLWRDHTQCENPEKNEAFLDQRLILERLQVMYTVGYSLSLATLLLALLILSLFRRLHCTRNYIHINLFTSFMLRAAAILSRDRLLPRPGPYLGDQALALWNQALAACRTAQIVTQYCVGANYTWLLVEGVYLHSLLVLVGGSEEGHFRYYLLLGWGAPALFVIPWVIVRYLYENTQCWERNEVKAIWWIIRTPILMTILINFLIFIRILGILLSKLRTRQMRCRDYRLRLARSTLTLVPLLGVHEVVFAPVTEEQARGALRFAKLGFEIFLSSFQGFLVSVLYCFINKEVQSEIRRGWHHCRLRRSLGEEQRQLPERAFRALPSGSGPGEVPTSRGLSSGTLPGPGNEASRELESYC

B1: SEQ ID NO: 12 (peptide)
peptide: Y[Aib]EGTFISDLSI[Aib]K([AEEA-AEEA-AEEA-γGlu-C18 diacid])DRIHQEEFIEWLLAQGPSSGAPPPS-NH2
modifications: N-terminus assumed
SMILES: CC[C@H](C)[C@H](NC(=O)[C@H](Cc1ccccc1)NC(=O)[C@H](CCC(=O)O)NC(=O)[C@H](CCC(=O)O)NC(=O)[C@H](CCC(N)=O)NC(=O)[C@H](Cc1c[nH]cn1)NC(=O)[C@@H](NC(=O)[C@H](CCCNC(=N)N)NC(=O)[C@H](CC(=O)O)NC(=O)[C@H](CCCCNC(=O)COCCOCCNC(=O)COCCOCCNC(=O)COCCOCCNC(=O)CC[C@H](NC(=O)CCCCCCCCCCCCCCCCC(=O)O)C(=O)O)NC(=O)C(C)(C)NC(=O)[C@@H](NC(=O)[C@H](CO)NC(=O)[C@H](CC(C)C)NC(=O)[C@H](CC(=O)O)NC(=O)[C@H](CO)NC(=O)[C@@H](NC(=O)[C@H](Cc1ccccc1)NC(=O)[C@@H](NC(=O)CNC(=O)[C@H](CCC(=O)O)NC(=O)C(C)(C)NC(=O)[C@@H](N)Cc1ccc(O)cc1)[C@@H](C)O)[C@@H](C)CC)[C@@H](C)CC)[C@@H](C)CC)C(=O)N[C@@H](CCC(=O)O)C(=O)N[C@@H](Cc1c[nH]c2ccccc12)C(=O)N[C@@H](CC(C)C)C(=O)N[C@@H](CC(C)C)C(=O)N[C@@H](C)C(=O)N[C@@H](CCC(N)=O)C(=O)NCC(=O)N1CCC[C@H]1C(=O)N[C@@H](CO)C(=O)N[C@@H](CO)C(=O)NCC(=O)N[C@@H](C)C(=O)N1CCC[C@H]1C(=O)N1CCC[C@H]1C(=O)N1CCC[C@H]1C(=O)N[C@@H](CO)C(N)=O
B2: SEQ ID NO: 14 (peptide)
peptide: Y[Aib]EGTFISDLSI[Aib]K([AEEA-AEEA-γGlu-γGlu-C18 diacid])DRIHQEEFIEWLLAQGPSSGAPPPS-NH2
modifications: N-terminus assumed
SMILES: CC[C@H](C)[C@H](NC(=O)[C@H](Cc1ccccc1)NC(=O)[C@H](CCC(=O)O)NC(=O)[C@H](CCC(=O)O)NC(=O)[C@H](CCC(N)=O)NC(=O)[C@H](Cc1c[nH]cn1)NC(=O)[C@@H](NC(=O)[C@H](CCCNC(=N)N)NC(=O)[C@H](CC(=O)O)NC(=O)[C@H](CCCCNC(=O)COCCOCCNC(=O)COCCOCCNC(=O)CC[C@H](NC(=O)CC[C@H](NC(=O)CCCCCCCCCCCCCCCCC(=O)O)C(=O)O)C(=O)O)NC(=O)C(C)(C)NC(=O)[C@@H](NC(=O)[C@H](CO)NC(=O)[C@H](CC(C)C)NC(=O)[C@H](CC(=O)O)NC(=O)[C@H](CO)NC(=O)[C@@H](NC(=O)[C@H](Cc1ccccc1)NC(=O)[C@@H](NC(=O)CNC(=O)[C@H](CCC(=O)O)NC(=O)C(C)(C)NC(=O)[C@@H](N)Cc1ccc(O)cc1)[C@@H](C)O)[C@@H](C)CC)[C@@H](C)CC)[C@@H](C)CC)C(=O)N[C@@H](CCC(=O)O)C(=O)N[C@@H](Cc1c[nH]c2ccccc12)C(=O)N[C@@H](CC(C)C)C(=O)N[C@@H](CC(C)C)C(=O)N[C@@H](C)C(=O)N[C@@H](CCC(N)=O)C(=O)NCC(=O)N1CCC[C@H]1C(=O)N[C@@H](CO)C(=O)N[C@@H](CO)C(=O)NCC(=O)N[C@@H](C)C(=O)N1CCC[C@H]1C(=O)N1CCC[C@H]1C(=O)N1CCC[C@H]1C(=O)N[C@@H](CO)C(N)=O
B3: SEQ ID NO: 16 (peptide)
peptide: Y[Aib]EGTFISDLSI[Aib]K([Gly-Gly-Gly-γGlu-C18 diacid])DRIHQEEFIEWLLAQGPSSGAPPPS-NH2
modifications: N-terminus assumed
SMILES: CC[C@H](C)[C@H](NC(=O)[C@H](Cc1ccccc1)NC(=O)[C@H](CCC(=O)O)NC(=O)[C@H](CCC(=O)O)NC(=O)[C@H](CCC(N)=O)NC(=O)[C@H](Cc1c[nH]cn1)NC(=O)[C@@H](NC(=O)[C@H](CCCNC(=N)N)NC(=O)[C@H](CC(=O)O)NC(=O)[C@H](CCCCNC(=O)CNC(=O)CNC(=O)CNC(=O)CC[C@H](NC(=O)CCCCCCCCCCCCCCCCC(=O)O)C(=O)O)NC(=O)C(C)(C)NC(=O)[C@@H](NC(=O)[C@H](CO)NC(=O)[C@H](CC(C)C)NC(=O)[C@H](CC(=O)O)NC(=O)[C@H](CO)NC(=O)[C@@H](NC(=O)[C@H](Cc1ccccc1)NC(=O)[C@@H](NC(=O)CNC(=O)[C@H](CCC(=O)O)NC(=O)C(C)(C)NC(=O)[C@@H](N)Cc1ccc(O)cc1)[C@@H](C)O)[C@@H](C)CC)[C@@H](C)CC)[C@@H](C)CC)C(=O)N[C@@H](CCC(=O)O)C(=O)N[C@@H](Cc1c[nH]c2ccccc12)C(=O)N[C@@H](CC(C)C)C(=O)N[C@@H](CC(C)C)C(=O)N[C@@H](C)C(=O)N[C@@H](CCC(N)=O)C(=O)NCC(=O)N1CCC[C@H]1C(=O)N[C@@H](CO)C(=O)N[C@@H](CO)C(=O)NCC(=O)N[C@@H](C)C(=O)N1CCC[C@H]1C(=O)N1CCC[C@H]1C(=O)N1CCC[C@H]1C(=O)N[C@@H](CO)C(N)=O
B4: SEQ ID NO: 15 (peptide)
peptide: Y[Aib]EGTFISDLSI[Aib]K([AEEA-AEEA-γGlu-γGlu-C20 diacid])DRIHQEEFIEWLLAQGPSSGAPPPS-NH2
modifications: N-terminus assumed
SMILES: CC[C@H](C)[C@H](NC(=O)[C@H](Cc1ccccc1)NC(=O)[C@H](CCC(=O)O)NC(=O)[C@H](CCC(=O)O)NC(=O)[C@H](CCC(N)=O)NC(=O)[C@H](Cc1c[nH]cn1)NC(=O)[C@@H](NC(=O)[C@H](CCCNC(=N)N)NC(=O)[C@H](CC(=O)O)NC(=O)[C@H](CCCCNC(=O)COCCOCCNC(=O)COCCOCCNC(=O)CC[C@H](NC(=O)CC[C@H](NC(=O)CCCCCCCCCCCCCCCCCCC(=O)O)C(=O)O)C(=O)O)NC(=O)C(C)(C)NC(=O)[C@@H](NC(=O)[C@H](CO)NC(=O)[C@H](CC(C)C)NC(=O)[C@H](CC(=O)O)NC(=O)[C@H](CO)NC(=O)[C@@H](NC(=O)[C@H](Cc1ccccc1)NC(=O)[C@@H](NC(=O)CNC(=O)[C@H](CCC(=O)O)NC(=O)C(C)(C)NC(=O)[C@@H](N)Cc1ccc(O)cc1)[C@@H](C)O)[C@@H](C)CC)[C@@H](C)CC)[C@@H](C)CC)C(=O)N[C@@H](CCC(=O)O)C(=O)N[C@@H](Cc1c[nH]c2ccccc12)C(=O)N[C@@H](CC(C)C)C(=O)N[C@@H](CC(C)C)C(=O)N[C@@H](C)C(=O)N[C@@H](CCC(N)=O)C(=O)NCC(=O)N1CCC[C@H]1C(=O)N[C@@H](CO)C(=O)N[C@@H](CO)C(=O)NCC(=O)N[C@@H](C)C(=O)N1CCC[C@H]1C(=O)N1CCC[C@H]1C(=O)N1CCC[C@H]1C(=O)N[C@@H](CO)C(N)=O
B5: SEQ ID NO: 13 (peptide)
peptide: [NMeY][Aib]EGTFISDLSI[Aib]K([AEEA-AEEA-γGlu-C18 diacid])DRIHQEEFIEWLLAQGPSSGAPPPS-NH2
modifications: N-terminus assumed
SMILES: CC[C@H](C)[C@H](NC(=O)[C@H](Cc1ccccc1)NC(=O)[C@H](CCC(=O)O)NC(=O)[C@H](CCC(=O)O)NC(=O)[C@H](CCC(N)=O)NC(=O)[C@H](Cc1c[nH]cn1)NC(=O)[C@@H](NC(=O)[C@H](CCCNC(=N)N)NC(=O)[C@H](CC(=O)O)NC(=O)[C@H](CCCCNC(=O)COCCOCCNC(=O)COCCOCCNC(=O)CC[C@H](NC(=O)CCCCCCCCCCCCCCCCC(=O)O)C(=O)O)NC(=O)C(C)(C)NC(=O)[C@@H](NC(=O)[C@H](CO)NC(=O)[C@H](CC(C)C)NC(=O)[C@H](CC(=O)O)NC(=O)[C@H](CO)NC(=O)[C@@H](NC(=O)[C@H](Cc1ccccc1)NC(=O)[C@@H](NC(=O)CNC(=O)[C@H](CCC(=O)O)NC(=O)C(C)(C)NC(=O)[C@H](Cc1ccc(O)cc1)NC)[C@@H](C)O)[C@@H](C)CC)[C@@H](C)CC)[C@@H](C)CC)C(=O)N[C@@H](CCC(=O)O)C(=O)N[C@@H](Cc1c[nH]c2ccccc12)C(=O)N[C@@H](CC(C)C)C(=O)N[C@@H](CC(C)C)C(=O)N[C@@H](C)C(=O)N[C@@H](CCC(N)=O)C(=O)NCC(=O)N1CCC[C@H]1C(=O)N[C@@H](CO)C(=O)N[C@@H](CO)C(=O)NCC(=O)N[C@@H](C)C(=O)N1CCC[C@H]1C(=O)N1CCC[C@H]1C(=O)N1CCC[C@H]1C(=O)N[C@@H](CO)C(N)=O

Key:
human GLP-1 receptor = human GLP-1 receptor (human, UniProt P43220 24-463); assay: cell-based or functional assay
human GIP receptor = target: T1, human GIP receptor; assay: cell-based or functional assay

Binder	EC50 hGLP-1R 0% HSA, cAMP in HEK-293 cells (human GLP-1 receptor)	EC50 hGIPR 0% HSA, cAMP in HEK-293 cells (human GIP receptor)	EC50 hGIPR 0.1% HSA, cAMP in HEK-293 cells (human GIP receptor)
B1	> 10000 pM	0.26 pM	2.38 pM
B2	> 10000 pM	0.23 pM	1.56 pM
B3	> 10000 pM	0.19 pM	2.55 pM
B4	> 10000 pM	0.34 pM	7.65 pM
B5	> 10000 pM	0.2 pM	1.76 pM
